Reference: patent publication US20170015742A1 (published 2017)
Where a chain is given by its changes, count along the chain named. Each block holds one binder with its values, some of them ahead of it.

Target: T1, human VEGF-A (human, UniProt P15692-4 27-191, limits assumed)
T1 construct: also called huVEGF-A
Experiment: SPR (Biacore), antibody captured by anti-human Fc, VEGF-A injected
Protocol: For example, approximately 9000 RU of goat anti-human Fc specific polyclonal antibody (Thermo Fisher Scientific Inc., Rockford, Ill.) diluted in 10 mM sodium acetate (pH 4.5) is directly immobilized across a CM5 research grade biosensor chip using a standard amine coupling kit according to manufacturer's instructions and procedures at 25 μg/ml. Unreacted moieties on the biosensor surface were blocked with ethanolamine. For kinetic analysis, rate equations derived from the 1:1 Langmuir binding model were fitted simultaneously to multiple antigen injections (using global fit analysis) with the use of Scrubber 2 (BioLogic Software), Biacore Biaevaluation 4.0.1 software or Biacore T100 Evaluation software. Purified antibodies or DVD-Ig molecules were diluted in running buffer for capture across goat anti-human Fc reaction surfaces. Antibodies or DVD-Ig molecules to be captured as a ligand (1 μg/ml) were injected over reaction matrices at a flow rate of 10 μl/minute. During the assay, all measurements were referenced against the capture surface alone (i.e., with no captured antibody or DVD-Ig molecule). […] The equilibrium dissociation constant KD (M) of the reaction between antibodies and the target antigen was then calculated from the kinetic rate constants by the following formula: KD=Koff/Kₒₙ. Binding was recorded as a function of time and kinetic rate constants were calculated.

T1 sequence (P15692 other isoform, or with tags, fused parts or gaps limits assumed): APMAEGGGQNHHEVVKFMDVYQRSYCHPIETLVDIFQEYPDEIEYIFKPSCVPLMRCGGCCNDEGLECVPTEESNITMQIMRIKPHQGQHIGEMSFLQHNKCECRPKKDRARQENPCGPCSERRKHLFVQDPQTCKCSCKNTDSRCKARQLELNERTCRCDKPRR

- Kd: 6 pM
- kon: 1.1e+07 M⁻¹ s⁻¹
B1: hBEW-5C3.1 (antibody, V domains shown)
VH: EIQLVQSGSELKKPGASVKVSCKASGYTFTNYGVYWVKQAPGQGLEYMGWINTETGKPTYADDFKGRFVFSLDTSVSTAYLQISSLKAEDTAVYYCARARQLDWFVYWGQGTLVTVSS
VL: DTVLTQSPATLSLSPGERATLSCRARESLTTSLSWFQQKPGQQPRLLIYGASKLESGVPARFSGSGSGTDFTLTISSLEPEDFAVYFCQQSWYDPPTFGGGTKVEIK
notes: Humanized IgG made from pHybE vectors in HEK293 cells

- Kd: 8.6 pM
- kon: 9.9e+06 M⁻¹ s⁻¹
B2: hBEW-5C3.4 (antibody, V domains shown)
VH: B1 VH
VL: DTQLTQSPSSLSASVGDRVTISCRARESLTTSLSWFQQKPGKQPKLLIYGASKLESGVPSRFSGSGSGTDFTLTISSLQPEDFATYFCQQSWYDPPTFGGGTKVEIK
notes: as for B1

- Kd: 8.5 pM
- kon: 1.2e+07 M⁻¹ s⁻¹
B3: hBEW-5C3.5 (antibody, V domains shown)
VH: EIQLVQSGAEVKKPGSSVKVSCKASGYTFTNYGVYWVKQAPGQGLEYMGWINTETGKPTYADDFKGRFTFTLDKSTSTAYMELSSLRSEDTAVYFCARARQLDWFVYWGQGTLVTVSS
VL: B2 VL
notes: as for B1

- Kd: 47 pM
- kon: 1.8e+07 M⁻¹ s⁻¹
B4: hBDB-4G8.8 (antibody, V domains shown)
VH: EVQLVQSGAEVKKPGASVKVSCKASGYTFTNYGMYWVRQAPGQGLEWMGWINTETGKPTYADDFKGRVTMTTDTSTSTAYMELRSLRSDDTAVYYCARTNYYYRSYIFYFDYWGQGTMVTVSS
VL: ATQLTQSPSLSASVGDRVTITCRASESVSTHMHWYQQKPGKQPKLLIYGASNLESGVPSRFSGSGSGTDFTLTISSLQPEDFATYFCQQSWNDPFTFGQGTKLEIK
notes: as for B1

- Kd: 1.3 pM
- kon: 2.6e+07 M⁻¹ s⁻¹
B5: hBDB-4G8.11 (antibody, V domains shown)
VH: B4 VH with V2I, W47Y, V68F, M70F, T72L, Y95F
VL: B4 VL
notes: as for B1

- Kd: 1.2 pM
- kon: 2.6e+07 M⁻¹ s⁻¹
B6: hBDB-4G8.12 (antibody, V domains shown)
VH: B4 VH with V2I, W47Y, V68F, M70F, T72L, Y95F
VL: DTVLTQSPATLSLSPGERATLSCRASESVSTHMHWYQQKPGQAPRLLIYGASNLESGVPARFSGSGSGTDFTLTISSLEPEDFAVYFCQQSWNDPFTFGQGTKLEIK
notes: as for B1

- Kd: 62 pM
- kon: 1.4e+07 M⁻¹ s⁻¹
B7: hBDB-4G8.9 (antibody, V domains shown)
VH: B4 VH
VL: B6 VL
notes: as for B1

- Kd: 12 pM
- kon: 1.6e+07 M⁻¹ s⁻¹
B9: hBEW-9E10.2 (antibody, V domains shown)
VH: EIQLVQSGAEVKKPGSSVKVSCKASGYTFTNYGMYWVKQAPGQGLEYMGWIDTETGRPTYADDFKGRFTFTADKSTSTAYMELSSLRSEDTAVYFCARWSGDTTGIRGPWFAYWGQGTLVTVSS
VL: DIRMTQSPSSLSASVGDRVTIECLASEDIYSDLAWYQQKPGKSPKLLIYNANGLQNGVPSRFSGSGSGTDYSLTISSLQPEDVATYFCQQYNYFPGTFGQGTKLEIK
notes: as for B1

- Kd: 2.1 pM
- kon: 1.2e+07 M⁻¹ s⁻¹
B10: hBEW-9E10.4 (antibody, V domains shown)
VH: EIQLVQSGSELKKPGASVKVSCKASGYTFTNYGMYWVKQAPGQGLEYMGWIDTETGRPTYADDFKGRFVFSLDTSVSTAYLQISSLKAEDTAVYFCARWSGDTTGIRGPWFAYWGQGTLVTVSS
VL: B9 VL with E22T, S72T
notes: as for B1

- Kd: 8.1 pM
- kon: 2.7e+07 M⁻¹ s⁻¹
B16: hBDB-4G8.10 (antibody, V domains shown)
VH: B4 VH with V2I, W47Y, V68F, M70F, T72L, Y95F
VL: AIQLTQSPSSLSASVGDRVTITCRASESVSTHMHWYQQKPGKAPKLLIYGASNLESGVPSRFSGSGSGTDFTLTISSLQPEDFATYYCQQSWNDPFTFGQGTKLEIK
notes: as for B1

- Kd: 15 pM
- kon: 9.6e+06 M⁻¹ s⁻¹
B17: hBEW-9A8.12 (antibody, V domains shown)
VH: EVQLVQSGAEVKKPGASVKVSCKASGYTFTNYGMYWVRQAPGQGLEWMGWINTETGKPIYADDFKGRVTMTTDTSTSTAYMELRSLRSDDTAVYYCARVDYDGSFWFAYWGQGTLVTVSS
VL: B16 VL with A1D, I2T, H32V, M33I, A43Q, Y49H, Y87F, S91H, F96P
notes: as for B1

- Kd: 7.6 pM
- kon: 2.2e+07 M⁻¹ s⁻¹
B21: hBDB-4G8.13 (antibody, V domains shown)
VH: EIQLVQSGTEVKKPGESLKISCKASGYTFTNYGMYWVKQMPGKGLEYMGWINTETGKPTYADDFKGRFTFSLDKSFNTAFLQWSSLKASDTAMYFCARTNYYYRSYIFYFDYWGQGTMVTVSS
VL: B6 VL with D1E, L13V, E79Q, P80S, K103R
notes: as for B1

- Kd: 1.7 pM
- kon: 7.9e+06 M⁻¹ s⁻¹
B24: hBEW-9A8.17 (antibody, V domains shown)
VH: EIQLVQSGSELKKPGASVKVSCKASGYTFTNYGMYWVKQAPGQGLEYMGWINTETGKPIYADDFKGRFVFSLDTSVSTAYLQISSLKAEDTAVYYCARVDYDGSFWFAYWGQGTLVTVSS
VL: B6 VL with D1E, H32V, M33I, A43Q, Y49H, S91H, F96P
notes: as for B1

- Kd: 6.7 pM
- kon: 5.8e+06 M⁻¹ s⁻¹
B25: hBEW-9A8.21 (antibody, V domains shown)
VH: B17 VH with V2I, V68F, M70F, T72L
VL: B6 VL with D1E, H32V, M33I, A43Q, Y49H, S91H, F96P
notes: as for B1

- Kd: 4.4 pM
- kon: 2e+07 M⁻¹ s⁻¹
B26: hBDB-4G8.15 (antibody, V domains shown)
VH: EVQLVESGGGLVQPGGSLRLSCAASGYTFTNYGMYWVKQAPGKGLEYMGWINTETGKPTYADDFKGRFTFSLDTSKSTAYLQMNSLRAEDTAVYFCARTNYYYRSYIFYFDYWGQGTLVTVSS
VL: B16 VL with A1D, I2T, T22S, Y87F, L104V
notes: as for B1

- Kd: 820 pM
- kon: 1e+07 M⁻¹ s⁻¹
B27: hBEW-9A8.9 (antibody, V domains shown)
VH: B17 VH
VL: EIVLTQSPDFQSVTPKEKVTITCRASESVSTVIHWYQQKPDQSPKLLIKGASNLESGVPSRFSGSGSGTDFTLTINSLEAEDAATYYCQQHWNDPPTFGQGTKLEIK
notes: as for B1

The next lines start with the binder.

B8: hBEW-9E10.1 (antibody, V domains shown)
VH: B10 VH
VL: B9 VL
notes: Humanized IgG made from pHybE vectors in HEK293 cells; also called AB642 (9E10.1)
- Kd: 2.1 pM
- kon: 1.2e+07 M⁻¹ s⁻¹

B11: hBDB-4G8.1 (antibody, V domains shown)
VH: EVQLVQSGSELKKPGASVKVSCKASGYTFTNYGMYWVRQAPGQGLEWMGWINTETGKPTYADDFKGRFVFSLDTSVSTAYLQISSLKAEDTAVYYCARTNYYYRSYIFYFDYWGQGTMVTVSS
VL: B16 VL
notes: as for B1
- Kd: 5.8 pM
- kon: 1.8e+07 M⁻¹ s⁻¹

B12: hBDB-4G8.2 (antibody, V domains shown)
VH: B11 VH
VL: B4 VL
notes: as for B1
- Kd: 3.6 pM
- kon: 1.7e+07 M⁻¹ s⁻¹

B13: hBDB-4G8.3 (antibody, V domains shown)
VH: B11 VH
VL: B6 VL
notes: as for B1
- Kd: 4.8 pM
- kon: 1e+07 M⁻¹ s⁻¹

B14: hBDB-4G8.7 (antibody, V domains shown)
VH: B4 VH
VL: B16 VL
notes: as for B1
- Kd: 34 pM
- kon: 3.7e+07 M⁻¹ s⁻¹

B15: hBEW-9A8.11 (antibody, V domains shown)
VH: B17 VH
VL: B16 VL with A1D, L4M, H32V, M33I, S91H, F96P
notes: as for B1
- Kd: 74 pM
- kon: 1.5e+07 M⁻¹ s⁻¹

B18: hBDB-4G8.6 (antibody, V domains shown)
VH: B11 VH with V2I, W47Y, Y95F
VL: B6 VL
notes: as for B1
- Kd: 1.4 pM
- kon: 2.6e+07 M⁻¹ s⁻¹

B19: hBDB-4G8.5 (antibody, V domains shown)
VH: B11 VH with V2I, W47Y, Y95F
VL: B4 VL
notes: as for B1
- Kd: 1.6 pM
- kon: 2.5e+07 M⁻¹ s⁻¹

B20: hBDB-4G8.4 (antibody, V domains shown)
VH: B11 VH with V2I, W47Y, Y95F
VL: B16 VL
notes: as for B1
- Kd: 5.5 pM
- kon: 2.7e+07 M⁻¹ s⁻¹

B22: hBEW-9A8.20 (antibody, V domains shown)
VH: B17 VH with V2I, R38K, W47Y, V68F, M70F, T72L
VL: B6 VL with D1E, H32V, M33I, A43Q, Y49H, S91H, F96P
notes: as for B1
- Kd: 1.6 pM
- kon: 7.6e+06 M⁻¹ s⁻¹

B23: hBDB-4G8.14 (antibody, V domains shown)
VH: B26 VH with V2I, E6Q, L11V, M83L
VL: B6 VL with A9S, L13A, L21I, R45K, A60S, G66R, E79Q, L104V
notes: as for B1
- Kd: 3.7 pM
- kon: 1.5e+07 M⁻¹ s⁻¹
